Experimental data published in the domain aggregation screens of Martell et al. (2025).

Assay: soluble fraction after stress (log2 fold change); higher = more stays soluble; pooled small domains, quantitative proteomics
Conditions: stress: pH 4
How it was run: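 Custom libraries of small protein domains were pooled and exposed to pH 4. High-throughput quantitative proteomics then measured the log2 fold change in the amount of each domain still soluble, with higher values meaning more stayed soluble. This soluble-fraction fold change stands for aggregation propensity.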

| Sequence | soluble fraction (log2) |
| --- | --- |
| HMQMSDTSMIRDLVLQVLAENPQSIEDFKNGKDRAVGFLVGMVMKKSQGKANPQITNQMIVEELKK | -0.277 |
| HMKVDRLVSMILILLEQQRVGAQELADRFEVSVRTIYRDMEAINQAGIPVRSTSGVGGGFEIM | -0.314 |
| HMGSNRPLALGDVVRIEGSKTLGTILELNAKDAVVALGALKTTLPLSRIHHASSQESQRLKRQATQAPLR | 0.0932 |
| HMDDPEISQEQRQQLFRTAKEHFGASGNDVLKEILADHGRDSTVKMPVSVFAEIMGDLLKRALD | -0.121 |
| HMSTYTETETAYLKAYSAAGVDGKISDSERGILNMTAEALGITVERTTELEAMFNLTVEEEA | -1.39 |
| HMTIYLSENIKRLRLEKELTQETLSEFLGVTSQSVSNWERGESYPDITMLPEIADFFKVSVDELLGVNRAE | -1.66 |
| HMEETGFYIKLQDQEVVIFHNDQVTPYEYTGIREEVLPESELEKLREGFFVEDEKELYSVLENLS | -0.412 |
| HMWTIDPLDWKTENADQIVEKVMSEAKENAIILLHDRYEASVEAALRIVDLLKEQGYTFVTADKLV | -0.421 |
| HMNNEISINGNKIYFNKNISKVFIYDISGKLIKHKNNFNNNFIDLSEFNSAFYIIKALDINENYTTKKIFL | -0.597 |
| HMAIDWVQIKAEYISGTMSASKLAEKHGVSVYAIRKRSGKERWQELRRQNQSETANKIAEKI | -0.0638 |
| HMPAPAPDIPYHSRVSVRRADGFYEGTWTNTAPILDYTGRWMVNVSLGGKRVFVPVEEVVVH | -0.384 |
| HMLKDQSIAQLEKNLDDLKGLMRKMFGSSDVPKITKMISDIESSLANFNQSKANKLIVQTTNYISSKL | -0.0978 |
| HMQRYYDVLGLQKGVSPEELKKTYRELSKKYHPDAHHNSPLRDLAEAKFKEINEAYEKIKEFLDNNF | -0.597 |
| HMNNFTQSALDTIDGIGKRRKKLLLNHFGSVKLIENASIEDIKKIDGISDLVANKIYNFFNKN | -0.173 |
| HMVYNQYILTQSVRLREEPGISGRVIRLLETGTTVELVDTVVVNKDDYDWVWVKLSDGAVGWIIKSAIDI | -1.03 |
| HMLMNADVLVKYQEDHWIVISEKASQASDTFDKKEQAVERAKEIAKNKNSSVKVYKQDGTLQDTFDYS | 0.306 |
| HMPFDRTVQLAGARARQLQALPRYREVLRLLDEGMNPREIGQVLDPPVTRQRASALIQQAKRAQMLGLFED | -0.0649 |
| HMGQGAASAPLRELGVDPVSEKQMVLKDGRFGPYVTDGETNASLRKGDEVETITDERASELLQMRRDAGPS | 0.0347 |
| HMISAQEQALRNLKLSNGMTWKALAKALGITERSILSYVAAPGTKGYREMPAEVWHKLENISGH | 0.143 |
| HMYTGSEGMAGLEGRAVTEVGPEAGTVLVKGEYWQARSDEPIATDRKIRVIRLEGLRLRVAEIHPEG | 0.169 |
| HMSITKDNLSIGTNIRISGFSDIGRIISIPNKGNQVQVQIGSAKMNIKINSIVEIIKEEKDFNKNISN | 0.189 |
| HMDILPEGNYKVNYDVIDEVGNIVANKNDIVVTEKSIKPLNTILGIDLYEVIHSQTGKYFTINGDNLTN | -0.328 |
| HMGVISRVITFWQNGFTVDDGPLRAFDDPANMAFMESIGRGEAPAELAPKTRTQRVNINLVQRHEPYSAPK | -0.934 |
| HMYYDDEELDDYRGKASDAYTAAEVEQFEEVLTTMRPEEVHGWLRSLQLRGVALPDALKDEAYMIVSEQAE | -0.727 |
| HMRPPLEWGTHGEITTRTVASGYVRASARVRLWDGELQRMTATASTASDARASLQHRIAERLRFSEL | -0.0592 |
| HMENTIESLLKAKGFNDIIVTVSDKQVDVVVSDKEIADNKRAQIEDVIKRKTGLEASAITITPA | -0.332 |

| Sequence | soluble fraction (log2) |
| --- | --- |
| HMRLADHVVEKLLALVQERGLQPGQKLPAERQLAEVLGVSRTSVREAIQKLVSQGVLSARRGDGTYVQS | 0.0683 |
| HMDLVESYDLKIIYTSELINLLIDSSRLEEALNLFKDLKDEIDDVENLGFSAKNNLDYMESKLLHLG | -1.6 |
| HMVNIEAEVGRRLRQLRARRGLSLRALADLSGLNVNTLSLIENSKTSPSVSTLQQLARSLQVPITTFFESD | 0.142 |
| HMKSQVVAYSDFVKAVNQKQINEVQIQGDKIRAINKAGEEITVTWLQNDQKLMDDLLDNNVKTIFLE | -0.282 |
| HMDFSENEPVTVRVLSILKNNTIRIAVKGAVLQAQTALSQDIREGAFLLMRVHITDNTVVLTPY | -0.193 |
| HMDSVEYRVITGDDVNFRKGPSTDYASLGKLNKGYKVEYISETNSWSKVKYNGQTGYVYSKYVAQT | -0.262 |
| HMITGSIQPKNGKYYAVLNLYDHTGKRRPKWVSTGYTVKGNKKKAQEVLNELTRRYSAQLPPSK | 0.22 |
| HMIYAEDFVGRQGTANTILRPSGRIEIEGEVYDAYTRGEYVEAGERVVVISQEGSTLKVRVV | -1.36 |
| HMRTVAERYGLTAGQWRVLELLTQGKTNRQIAEMLDVTEGTVKIHVSAIFKAMKVTNRTQALLLAKKH | -0.522 |
| HMGVRPAALGFQKVRIEPQVGTFREASGDVITPRGLIHAEWKRDEENALHLHYTLPDGVAYA | -0.109 |
| HMDLSYPFTTVTTDNVNMRRSASSSSVVLERIDKGDSITVLGTSGNYYKVSYNDRTGYVLKQYVDVSAATT | -0.0312 |
| HMDSNISVSEALEMVDKGSVKEIIVEGEKLYITNQDGKQYTSSKEVGVSLIELMKDSGIDPIKSDVNIIVK | -0.703 |
| HMTTMYKSDVKGINYDVKAKSWFLRITFNGNQIPIGHFKTEEDAINVKQQLIPYIESKDYTSILAVKAKYS | ≥ 0.43 |
| HMLIIMNSDATKEQVDHVTSRVREAGFKDHIMPGAGKVAIGVTGTGDYDQTKLHLEILPGVFKIMRITK | -0.0509 |
| HMQDNDLKNQIENVLRTYPDNVFTVEKIADVLRSHGSAAFKLIVQELASLERDKVAVVTEDGKFQLNPD | 0.339 |
| HMFAQDKKFITYKVKEGETVQSISKALSITPYDLLKLNPDIKDNVSQDDLLIIPNKQYDPLGDI | 0.421 |
| HMGVDMGPAKYVGQKALTATEMRPAGKIQIGQTVFDAVSVGPFIGARKAVKVIKYENAQLYVEPE | 0.116 |
| HMKRRSVIVSVVRAQVRQSADEAAAVVFEAEKNVSLDYLETMPGGWVKVRHRDGQTGFVRVNQIWG | -0.79 |
| HMENRILLSEDSLKHLAQDIPIDIIEKLSVLKDQIYHRYDDFNSIVQGLLGGENYLKYKDNILSFVEQ | -0.311 |
| HMVEMSNMELVREQYFQNLIYNVGDWVKDSKTEITGEVVKRGTNYLTIVQEDFTLHKVWLEDAESME | -1.46 |
| HMKEIGGGPASKFIYYLIKTKHPIEQGDLIGITHLPRRTVQSAIEDLKNQGFIIERNSLDDSRRKVYYPVK | 0.22 |
| HMNVQGFVFDLAEPLDKVPSIEGFPLKLEDPLTLVAAVNKDRSINALFAELSKLNIKIKSMRNE | -0.458 |
| HMGGEKLPAPVAGTLLRYSVAEGARVSEGQTVIILESMKMELEINTPKAGVIHFLAAVGAQVAEGDTLAEI | -0.171 |
| HMINLNEVLANFQKSYPNLAGFKYDQGMDALVYEGNYIRLNGYMLSRINPTLFSMSPDDIFTYLKNGF | -1.22 |
| HMDTNVPVPNVNGMTLNQAKAALEAAGFHVAVNWLGEKSDNNSVISYEPNGSAAKGTTITITVIAQPEQDG | -0.507 |
| HMSREVTVPPLSGLTLRDAARTLAERGLLMEAEGQGAVHRQDPPAGTRVPTGTPVRVFLTLPEQNS | -0.511 |

| Sequence | soluble fraction (log2) |
| --- | --- |
| HMYDPVNEIGRVLKKIRQERSLTLDNVAEITGVSKTMLGQIERGVSVPTISVLWKIAKGLQVSLSTLLNE | 0.36 |
| HMQNDDLTKLDGIGPYIEQRLNDIGIYNYEQLSKLNTEDIQKITELIDFFPGRIERDNWVSQAQLLKI | -0.807 |
| HMQGEAMQETVKKLDAFLQDNSVSMSALARALGVSPSLISQFRSGSYKGDSQAIAAKINSYIDNHNKKSK | 0.0656 |
| HMVAREAYTTQNLTDVFSISRQAVEKRAKREGWQSVPRKGRGGGKLWVVSSMPAETRDLLASLLLRK | ≥ 0.43 |
| HMRASVTYVVQVNGKLRGKLEVAPDIDPEELKKLALEVENVKHSLQGWTVKKVIVIPGKMVSIAAGK | -0.296 |
| HMTVPDVKGMGARDAVFLLETLGFKVRINGIGQVYEQSIDPGKSYSKGEFISLRL | -0.81 |
| HMIKDSKAAYKILGVDENATNEEIKKAYRQLVINHHPDKVSHLGEDIQRAANEKLKQINAAYDEIKKQRGF | 0.171 |
| HMKNEFRVYPNPANKEIVTFNQTQDIEVYDTLGKLVLKAKNTNTLDTKSFHSGIYFIKTGSGLTRKLVV | ≥ 0.43 |
| HMSDDSTIVELLASSLRRDIAFGTLLPDQKLKLNELRTRYGGSIHSMRETLRILSAEGLVEATAQRGFRVT | -0.395 |
| HMPLLKIGAQGHDVRVVQEALQRAGYAIEGVTGIFDEATREAVLAFQRDQQLTESGTVDRATWHALRR | -0.52 |
| HMNDTSLIIDNLMLKLGNNIKNFSEIYSLLRKNLAEYGEEFIKSKVDYVLKNFNDNIEENLKKLLTE | -0.601 |
| HMNEFGIPDKKLQDIETRVNSMSLEQLNAARSMLIDEQEALNSSTGSASSGRLKEIAAELSTIQKALIAIA | -0.0513 |
| HMAMDYTVVHSDRRTIAIQIQRDGRVVVRAPYAATAEDIRRVVDSHRDWVEKTVRRQQEQLAAS | 0.238 |
| HMEHIEVDTSHIAVGSKVKHKAFGLGEITDKGNTYVFVKFDGQAIPKKFQFPGAFTQGFLTK | 0.154 |
| HMAQISDESALYDLVKSVLDANPQSIADYKAGRDRALGFLMGQAMKLSKGKANPPVINKILKEMLDK | 0.292 |
| HMVVRKHDRYYTPEHRKLLMDTYERTNKYPTKQDMSELAKIIGVLPIKILWWYTHRRRQDRRKGEESSSP | -2.23 |
| HMDWFDELKVSTDDSGRVTAPEESEFMFQTSNEKIFAGGDMVRGSDLVVTAIWEGRQAAEGIMDYLD | -0.726 |
| HMGVTDSSYNVLRRQILEMLSVQQRTPADLARLIEADKEEIAAVIRFLLDKGEIQMEDGMLQTK | -0.151 |
| HMALPPPELRGATGEAVTALRPAGIALIQGKRYDVLAEGGEWIAAGAAVRVRDIRNGHLIVSDA | 0.166 |
| HMKSPVKLILRGSIYHIKISAVVNGQRIFVRESSHTTDKREAEQYANKRFAQLVEETEFRTN | -0.907 |
| HMAPELSGEKLWDAQDVAMFLRVKPTTVWSYVSRDGFPAPVSQAGRAGMWSEPLVVQWYLSRPG | -0.16 |
| HMTSAPHHIAAVLRDAIYRGVLEEGGPLHQARIAQSLGVSPIPLREALRLLETEGLVEFRGYRGAFVT | -0.8 |
| HMSMPDERMLTSWMMARVKAAGKTMTRDAWNEFFERSNDSMDHMDMEMEKLLSYVYDKDGITLEDVEA | -0.381 |
| HMQEPIAVPDFINKSAVDVLVNPVFTQNFKLVSEDVYDDKVPEGYIVGQSVKSDTLVQPGTEIVIYV | 0.0962 |
